In experiment [1] the target is L4-MHC (SIYLYYGL peptide presented by H-2K^b) (mouse | human). The experiment in a line: micropipette single-cell adhesion frequency assay; TCR on a hybridoma T cell held by a micropipette, brought into contact with a streptavidin-coated biotinylated human RBC carrying biotinylated pMHC; bi-molecular TCR-pMHC (CD8-); zero force; 2D effective constants from the fit of adhesion frequency against contact time.

Experiment [2] has the same target. The experiment in a line: micropipette single-cell adhesion frequency assay; biotinylated pMHC on streptavidin-coated red blood cells against a TCR-expressing T cell; 2D effective binding affinity AcKa; whether CD8 was on the T cells is not stated.
The target of experiment [3] is R4-MHC (SIYRYYGL peptide presented by H-2K^b) (mouse | human). Described as above.
Experiment [4] shares this target. The experiment in a line: ultra-stable biomembrane force probe (U-BFP), force-clamp bond lifetimes; as a3, but the 2C hybridoma cell expresses CD8 with CD8β-Ile2Ala at a level matched to WT CD8.
Experiment [5] has the same target. The experiment in a line: ultra-stable biomembrane force probe (U-BFP), force-clamp bond lifetimes; biotinylated pMHC on a streptavidin bead on a red blood cell probe against a TCR-expressing T cell without CD8; adhesion frequency below 20%; DMEM with 0.5% BSA.
Experiment [6] shares this target.
The target is the same in experiment [7]. The experiment in a line: ultra-stable biomembrane force probe (U-BFP), force-clamp bond lifetimes; as a3, but the T cell expresses wild-type CD8αβ beside the TCR (TCR–pMHC–CD8 tri-molecular interaction).
Experiment [8] concerns the target L4-MHC ( peptide presented by H-2K^b) (mouse | human). Description: SPR. A general note: SPR reads the build-up and loss of mass on a sensor chip optically.
Experiment [9] has as its target R4-MHC ( peptide presented by H-2K^b) (mouse | human). Description: SPR.
The target in experiment [10] is L4-MHC (SIYLYYGL peptide presented by H-2K^b) (mouse | human). The experiment in a line: ultra-stable biomembrane force probe (U-BFP), force-clamp bond lifetimes; biotinylated pMHC on a streptavidin bead on a red blood cell probe against a TCR-expressing T cell without CD8; adhesion frequency below 20%; DMEM with 0.5% BSA.
The target is the same in experiment [11].
Experiment [12] shares this target. The experiment in a line: ultra-stable biomembrane force probe (U-BFP), force-clamp bond lifetimes; as a3, but the T cell expresses wild-type CD8αβ beside the TCR (TCR–pMHC–CD8 tri-molecular interaction).
For experiment [13], the target named is R4-MHC (SIYRYYGL peptide presented by H-2K^b) (mouse | human). This is another data set of the same source.

The values below come from PMC11958657.

In general, koff refers to the first-order rate constant of dissociation. Lower therefore signals slow dissociation. Usually pKd stands for −log10 of the Kd, conventionally taken in molar units.

pKd: −log10 of the molar value.

2C-TCR displayed a koff in experiment [1] of 6.61 s⁻¹. Further, the 2D effective binding affinity (AcKa) in experiment [2] was 3.7e-05 μm^4. Further, the 2D effective binding affinity (AcKa) in experiment [3] amounted to 0.0016 μm^4. Besides, in [4], the bond lifetime ratio R4-MHC over L4-MHC, medium force regime, with CD8β-Ile2Ala was found to be 4.81; the fold reduction of CD8 enhancement power (CD8β-Ile2Ala against WT CD8) is 2 times; the peak bond lifetime, with CD8β-Ile2Ala turned out to be 0.54 s. Besides, in experiment [5], the bond lifetime ratio R4-MHC over L4-MHC, high force regime (16–19 pN), without CD8 amounted to 5.1 fold; the bond lifetime ratio R4-MHC over L4-MHC, low force regime (2–5 pN), without CD8 is 1.3 fold; the bond lifetime ratio R4-MHC over L4-MHC, medium force regime (9–12 pN), without CD8 was determined as 3.38 fold; the peak bond lifetime (at ~8.32 pN), without CD8 worked out at 0.3 s. In addition, in [6], the IL-2 production of 2C hybridoma T cells stimulated by RMA-S cells pulsed with R4 peptide, with CD8 against without CD8 is greater than 100 fold. In experiment [7], the CD8 enhancement power (bond lifetime with CD8 over without CD8), medium force regime worked out at 3.04 fold; the bond lifetime ratio R4-MHC over L4-MHC, medium force regime (9–12 pN), with CD8 amounted to 10 fold; the peak bond lifetime, with CD8 is 0.8 s.

Consider 2C-TCR, soluble ectodomains, for which the pKd is 4.42 in experiment [8] and 4.69 in experiment [9].

With m33-TCR, the off-rate (koff) in experiment [1] amounted to 4.22 s⁻¹. Besides, in experiment [2], the 2D effective binding affinity (AcKa) turned out to be 0.00089 μm^4. Further, the 2D effective binding affinity (AcKa) in [3] was found to be 0.0013 μm^4. This substance had a peak bond lifetime (at ~9.62 pN), without CD8 in [10] of 1.82 s. Further, in experiment [5], the bond lifetime ratio R4-MHC over L4-MHC, high force regime (16–19 pN), without CD8 came out at 7.55 fold; the bond lifetime ratio R4-MHC over L4-MHC, low force regime (2–5 pN), without CD8 came out at 1.13 fold; the bond lifetime ratio R4-MHC over L4-MHC, medium force regime (9–12 pN), without CD8 was determined as 1.99 fold; the peak bond lifetime (at ~12.85 pN), without CD8 is 3.43 s. In experiment [11], this substance returned an L4 peptide concentration (on RMA-S cells) at which m33 hybridoma T cells release IL-2, with CD8 of 1 nM. In addition, in [6], the R4 peptide concentration (on RMA-S cells) at which m33 hybridoma T cells release IL-2, without CD8 stood at 100 pM. Moreover, in experiment [12], the CD8 enhancement power (bond lifetime with CD8 over without CD8), medium force regime turned out to be 5.7 fold and the peak bond lifetime, with CD8 came out at 3.99 s. In addition, in experiment [7], the CD8 enhancement power (bond lifetime with CD8 over without CD8), medium force regime is 3.4 fold; the bond lifetime ratio R4-MHC over L4-MHC, medium force regime (9–12 pN), with CD8 was 1.19 fold; the peak bond lifetime, with CD8 was found to be 5.2 s.

On to m33-TCR, soluble ectodomains, for which the results for the pKd in experiment [8] and in experiment [9] were 6.25 and 6.73, respectively.

m67-TCR returned a dissociation rate constant (koff) in [1] of 4.92 s⁻¹. In experiment [2], this substance had a 2D effective binding affinity (AcKa) of 0.00099 μm^4. This substance came in with a 2D effective binding affinity (AcKa) in experiment [3] of 0.0016 μm^4. This substance registered a peak bond lifetime, without CD8 in experiment [10] of 2.56 s. For the same substance, in experiment [5], the bond lifetime ratio R4-MHC over L4-MHC, high force regime (16–19 pN), without CD8 turned out to be 2.63 fold; the bond lifetime ratio R4-MHC over L4-MHC, low force regime (2–5 pN), without CD8 worked out at 0.34 fold; the bond lifetime ratio R4-MHC over L4-MHC, medium force regime (9–12 pN), without CD8 was 3.77 fold; the peak bond lifetime, without CD8 amounted to 5.94 s. The L4 peptide concentration (on RMA-S cells) at which m67 hybridoma T cells release IL-2, with CD8 in experiment [11] came out at 100 pM. In experiment [6], the R4 peptide concentration (on RMA-S cells) at which m67 hybridoma T cells release IL-2, without CD8 stood at 10 nM. In experiment [12], the CD8 enhancement power (bond lifetime with CD8 over without CD8), medium force regime stood at 4.36 fold and the peak bond lifetime, with CD8 stood at 5.09 s. Further, in [7], the bond lifetime ratio R4-MHC over L4-MHC, medium force regime (9–12 pN), with CD8 is 0.96 fold and the peak bond lifetime, with CD8 worked out at 5.95 s.

Consider m67-TCR, soluble ectodomains, for which the pKd was 7.02 in [8] and 7.58 in experiment [9].

“mouse CD8αβ with CD8β-Ile2Ala (from UniProt P01731 28-247; P10300 22-213) (receptor)”: the TCR specificity of 2C hybridoma cells (ratio of IL-2 sensitivities for R4 over L4) with CD8β-Ile2Ala in experiment [13] stood at 7070.

“mouse CD8αβ, wild type (from UniProt P01731 28-247; P10300 22-213) (receptor)”: in experiment [13], the TCR specificity of 2C hybridoma cells (ratio of IL-2 sensitivities for R4 over L4) with WT CD8 amounted to 65500.
